Reference: patent publication US11485776B2, “Antibodies against infectious diseases” (priority 2015, dated 2022)
“Also recorded” adds a separate entry of the source.

Tests used:
CaENO1 = biological target: T1, CaENO1 (Candida albicans, UniProt P30575); format: binding, C. albicans; details: free form vs fixed form recombinant CaENO1
T1 construct: using full-length CaENO1 (1323 bp) as template; His (N); made in house; host or cells: E. coli BL21
Experimental: (A) Purified CaS1 scFv was used to recognize recombinant CaENO1 protein. The CaS1 scFv were used as primary antibody with series dilution. The goat anti-chicken light chain IgG was used as secondary antibody. The HRP conjugated donkey anti-goat IgG was used to decet. (B) OD value was calculated into percentage. […] The goat anti-chicken light chain IgG was used as secondary antibody. The HRP conjugated donkey anti-goat IgG was used to detect. (D) We calculated OD value into percentage.

C. albicans [1] = test: Mouse model of C. albicans infection (survival); format: in vivo, ICR mice; details: for survival rate: ICR mice; for Protection against lethal challenge of C. albicans in mice: mouse, in vivo
Experimental: The mice were grouped and challenged with the mixture of 10^6 of C. albicans containing 10 ug and 100 ug CaS1 scFv, 100 ug anti-DA scFv (unrelated scFv control) or 1×PBS, respectively. The survival of mice was monitored at 1 day intervals for 10 days.
A total of 20 ICR female mice (purchased from National Laboratory Animal Center, Taiwan) weighing about 30 g were randomly grouped with 5 mice in each group. C. albicans were grown overnight and washed in normal saline. Four groups of mice were treated through the lateral tail vein with the following preparations: (i) 1×PBS alone; (ii) 1×10^6 cfu of C. albicans cells pre-incubated with 50 μg of CaS1; (iii) 1×10^6 cfu of C. albicans cells pre-incubated with 100 μg of CaS1; (iv) 1×10^6 cfu of C. albicans cells pre-incubated with anti-CaENO1 IgY. Mice were monitored for survival at 1 day intervals for 10 days. All treatments and handling of mice were carried out according to animal experimental protocols approved by the Institutional Animal Care and Use Committee of Taipei Medical University.
1×10^6 cells of C. albicans solutions were mixed with 100 μg of each of the anti-CaENO1 IgY, scFv CaS1 and control scFv and then injected into ICR mice (5 mice for each group).
We evaluated the survival rate of the CaS1 on animal model. Initially ICR mice were tail-vein injected with 1×10^6 cells of C. albicans with PBS alone or cells pre-incubated with CaS1 (10 and 100 μg) for one hour at 37° C. […] Anti-Deinagkistrodon acutus scFv (anti-DA) is an antibody to snake venom, which was used as an unrelated scFv control.

C. albicans [2] = test: C. albicans growth on YPD agar plate; format: cell-based; details: 0.5 mg/ml antibody pre-incubated 1 hr, 10x dilutions spotted
Experimental: (A) C. albicans were cultured in YPD medium overnight at 37° C. 10^8 cfu/ml of C. albicans was mixed with equal volume of 0.5 mg/ml anti-CaENO1 IgY, 0.5 mg/ml CaS1 scFv or 1×PBS, respectively, at room temperature for 1 hr. 1 ul of each mixture in 10× dilutions was spotted on YPD agar plate and incubated at 37° C. overnight. (B) 10^3 cfu of C. albicans was mixed with PBS (control), 10 or 100 µg/ml CaS1 scFv at room temperature for 1 hr. 1 ul of each mixture was spotted on YPD agar plate and incubated at 37° C. for 5 days. The hyphal formation was observed under the microscope.
To determine the effect of scFv antibodies on the cell growth and hyphal formation, anti-CaENO1 IgY (0.5 mg/ml) or CaS1 scFv (0.5 mg/ml) or PBS were pre-incubated with C. albicans (1×10^6 cfu) for 1 hr at 37° C. After incubation, 1 ul of each mixture in 10-fold dilutions was spotted on YPD agar plate and incubated at 37° C. overnight. 10^3 cfu of C. albicans was mixed with 0 (1×PBS control), 10 or 100 µg/ml CaS1 scFv at room temperature for 1 hr. Thereafter, 1 ul of each mixture was spotted on YPD agar plate and incubated at 37° C. for 5 days. […].
We evaluated the influence of CaS1 on growth of C. albicans, we pre-incubated CaS1 scFv with C. albicans and plated on the agar.

[3] = biological target: T2, alpha-enolase on the surface of C. albicans (Candida albicans, UniProt P30575); test: Flow cytometry of C. albicans, FITC binding; format: cell-based, C. albicans SC 5314; details: 100 ug antibody, 10^5 cells, 2 hours at 37° C.
T2 construct: endogenous in cells; host or cells: C. albicans SC 5314 and clinical isolates CA6-17, CA7-26, CA7-3, CA10-50, CA7-30, CA10-65
Experimental: (A) C. albicans SC 5314 were cultured overnight and 10^5 cells were added to each tube with 2 ml YPD medium. Experiment antibodies were added to each tube (1) Anti-CaENO1 IgY (100 ug) (2) Control scFv (100 ug) (3) scFv CaS1 (100 ug) (4) PBS, and cultured 2 hours at 37° C. in an incubator. Goat anti-chicken light chain (1:1500) antibody was used as detected antibody; FITC donkey anti-goat antibody (1:1000) was used as developed antibody to detect the reaction. Propidium iodide (PI) (1 ug/ml) was used to detect cell death. (B) Quantification of flow cytometry result in the panel A (*, p<0.05;**, p<0.01). Flow cytometry is represented as mean±SD of the duplicated experiment.
Anti-CaENO1 IgY, scFv CaS1 and control scFv were contacted with C. albicans and then subjected to flow cytometry assay. Anti-CaENO1 IgY, scFv CaS1 and control scFv show 89.7+/−2.8%, 46.64+/−3.1% and 23+/−2.3% FITC fluorescence reaction (FIG. 7A), representing that the antibody can bind to alpha-enolase on the surface of C. albicans.

[4] = biological target: T3, CaENO1 binding to plasminogen (Candida albicans, UniProt P30575); test: Fibrin matrix-gel degradation with CaENO1 on Ni sepharose; format: biochemical, C. albicans; details: antibody 100 ug; for Binding of CaENO1 to plasminogen: CaENO1 on Ni sepharose
T3 construct: using full-length CaENO1 (1323 bp) as template; made in house; host or cells: E. coli BL21
Experimental: Each experimental group of CaENO1 with CaS1 scFv were dropped onto gel and incubated at room temperature for 2 days to observe gel degrade result. (1) plasminogen (1 ug/ul) only. (2) CaENO1 on Ni Sepharose™ (10 ug). (3) CaENO1 on Sepharose™ (10 ug) with plasminogen (20 ug).
Each experimental group of CaENO1 with CaS1 scFv were dropped onto gel and incubated at room temperature for 2 days to observe gel degrade result an the results are shown in FIG. 15.

T3 sequence (P30575 whole entry): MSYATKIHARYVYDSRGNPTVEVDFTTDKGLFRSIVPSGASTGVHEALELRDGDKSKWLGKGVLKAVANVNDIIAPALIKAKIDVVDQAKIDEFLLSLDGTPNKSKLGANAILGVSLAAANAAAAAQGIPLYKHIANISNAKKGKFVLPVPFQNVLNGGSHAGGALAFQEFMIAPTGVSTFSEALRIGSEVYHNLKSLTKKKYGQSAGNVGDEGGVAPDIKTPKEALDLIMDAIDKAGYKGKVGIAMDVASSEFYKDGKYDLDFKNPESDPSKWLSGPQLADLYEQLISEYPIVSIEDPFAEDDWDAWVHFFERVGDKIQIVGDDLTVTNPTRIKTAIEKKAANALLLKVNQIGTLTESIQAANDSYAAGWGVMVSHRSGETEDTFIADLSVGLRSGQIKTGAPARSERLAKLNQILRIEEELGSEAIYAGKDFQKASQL
T1 sequence (P30575 whole entry): as above
T2 sequence (P30575 whole entry): as above

B1: CaS1 scFv: anti-CaENO1 scFv monoclonal antibody from chicken phage library; light chain SEQ ID NO:11, heavy chain SEQ ID NO:12 (antibody, V domains shown)
VH: TVTLDESGGGLQTPRGALSLVCKASGFTFIDYGMQWVRQAPGKGLEWVAGIGSSGSSTNYGAAVKGRATISRDDGQSTVRLQLNNLRAEDTGTYYCAKSAGGYCVNGAGCNGGSIDAWGHGTEVIVSS
VL: ALTQPSSVSANLGGTVKITCSGGSGSYGWYQQKSPGSAPVTVIYSNNQRPSNIPSRFSGSPSGSTGTLTITGVQADDEAVYFCGSRDSSYVGVFGAGTTLTVL
modifications: scFv linker; amino acid sequence comprised in a heavy chain of an anti-CaENO1 scFv monoclonal antibody (CaS1); amino acid sequence comprised in a light chain of an anti-CaENO1 scFv monoclonal antibody (CaS1)
Q: How did the “KD by competitive ELISA” value (CaENO1) turn out when B1 was run?
A: 4.45 µg/mL

Q: What about the Kd (CaENO1; read-out: KD by competitive ELISA) of the same molecule?
A: 89 nM

Q: And the survival rate (C. albicans [1]; 10 μg pre-incubated with 1×10^6 cells of C. albicans, tail-vein)?
A: 40%

Q: What about the survival rate (C. albicans [1]; 100 μg mixed with 1×10^6 cells of C. albicans, 10 days) of the same molecule?
A: 80%

Q: And the “Protection against lethal challenge of C. albicans in mice” value (C. albicans [1])?
A: partial protect activity; also recorded: significant protective activity

Q: What about the “Protection against lethal challenge of C. albicans in mice” value (C. albicans [1]; listed as CaS1 antibody) of the same molecule?
A: prolonged the survival time

Q: What about the “C. albicans growth on YPD agar plate” value (C. albicans [2]) of the same molecule?
A: decreased C. albicans growth

Q: And the “C. albicans growth on YPD agar plate” value (C. albicans [2]; listed as CaS1)?
A: attenuated the growth

Q: And the FITC fluorescence reaction [3]?
A: 46.64+/−3.1%

Q: What about the “Fibrinolytic activity of CaENO1 on Sepharose with plasminogen” value ([4]; CaENO1 10 ug, plasminogen 20 ug, 2 days) of the same molecule?
A: no fibrinolytic activity

Q: And the “Binding of CaENO1 to plasminogen” value [4]?
A: significantly reduced

Q: What about the “Binding of CaENO1 to plasminogen” value ([4]; listed as CaS1) of the same molecule?
A: inhibits
